The target in one data set is LANA 9-11 (last 237 aa) (Kaposi's sarcoma-associated herpesvirus, UniProt Q9QR71 SEQ:926-1162). Briefly: EMSA; lacks leucine zipper; anti-LANA supershift. The following applies: tags: GST; label: radiolabel. On the technique in general: Mobility shift assays separate free from complexed probe on a gel.
Another data set has as its target T1, LANA 1-950 (Kaposi's sarcoma-associated herpesvirus).
T1 chain: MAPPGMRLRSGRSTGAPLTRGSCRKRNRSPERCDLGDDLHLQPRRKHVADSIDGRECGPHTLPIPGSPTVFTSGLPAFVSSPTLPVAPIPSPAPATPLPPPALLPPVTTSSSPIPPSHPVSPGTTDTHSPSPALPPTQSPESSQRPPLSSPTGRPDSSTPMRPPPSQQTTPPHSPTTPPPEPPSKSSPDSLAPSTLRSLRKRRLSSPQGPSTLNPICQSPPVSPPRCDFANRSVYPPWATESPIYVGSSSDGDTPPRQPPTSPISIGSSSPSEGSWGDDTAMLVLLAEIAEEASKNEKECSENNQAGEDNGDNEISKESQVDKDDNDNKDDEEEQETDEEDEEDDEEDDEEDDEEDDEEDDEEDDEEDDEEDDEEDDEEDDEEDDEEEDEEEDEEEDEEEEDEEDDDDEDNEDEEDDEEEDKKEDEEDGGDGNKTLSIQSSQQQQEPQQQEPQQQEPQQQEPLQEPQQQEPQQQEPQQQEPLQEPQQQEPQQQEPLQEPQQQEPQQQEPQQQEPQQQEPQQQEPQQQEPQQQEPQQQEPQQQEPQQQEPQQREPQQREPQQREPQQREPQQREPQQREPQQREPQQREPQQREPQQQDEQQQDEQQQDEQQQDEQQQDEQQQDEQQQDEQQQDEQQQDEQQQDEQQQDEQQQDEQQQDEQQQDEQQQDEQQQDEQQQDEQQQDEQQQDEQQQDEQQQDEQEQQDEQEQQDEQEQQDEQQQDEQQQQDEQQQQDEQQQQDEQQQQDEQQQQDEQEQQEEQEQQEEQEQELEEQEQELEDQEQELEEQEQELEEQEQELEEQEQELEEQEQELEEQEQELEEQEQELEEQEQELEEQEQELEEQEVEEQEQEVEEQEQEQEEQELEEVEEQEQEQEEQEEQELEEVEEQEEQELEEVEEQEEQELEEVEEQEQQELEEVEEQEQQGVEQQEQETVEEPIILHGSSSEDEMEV
The experiment in a line: EMSA. The conditions noted are these: label: radiolabel.

Data on 1 molecule can be found in US20040248081, “LANA viral protein binding sites” (THE REGENTS OF THE UNIVERSITY OF MICHIGAN, published 2004).

Chain of LANA 9-11 (last 237 aa) (Q9QR71 893-1129): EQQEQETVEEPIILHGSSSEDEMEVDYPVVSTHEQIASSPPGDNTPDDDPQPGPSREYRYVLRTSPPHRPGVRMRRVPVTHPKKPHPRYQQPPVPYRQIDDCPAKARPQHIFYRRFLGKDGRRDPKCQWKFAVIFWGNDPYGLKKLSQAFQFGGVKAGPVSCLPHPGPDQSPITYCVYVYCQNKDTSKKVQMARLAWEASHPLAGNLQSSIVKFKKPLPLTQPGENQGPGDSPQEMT

B1: TLBR4 (dsDNA)
DNA 1: TCCCGCCCGGGCATGGG
DNA 2: CCCATGCCCGGGCGGGA
For the molecule B1, the figures for the binding result with LANA 9-11 (last 237 aa) and with LANA 1-950 were “binds” and “no binding”, respectively.
